Experiments:
GST-TLX ΔN (Δ1-187) = GST-TLX ΔN (Δ1-187) (mouse, UniProt Q64104 188-385); experiment: pull-down
GST-TLX ΔC341-385 = GST-TLX ΔC341-385 (mouse, UniProt Q64104 1-340); experiment: pull-down
GST-TLX ΔC341-385, sequence (Q64104 1-340, stated change not applied): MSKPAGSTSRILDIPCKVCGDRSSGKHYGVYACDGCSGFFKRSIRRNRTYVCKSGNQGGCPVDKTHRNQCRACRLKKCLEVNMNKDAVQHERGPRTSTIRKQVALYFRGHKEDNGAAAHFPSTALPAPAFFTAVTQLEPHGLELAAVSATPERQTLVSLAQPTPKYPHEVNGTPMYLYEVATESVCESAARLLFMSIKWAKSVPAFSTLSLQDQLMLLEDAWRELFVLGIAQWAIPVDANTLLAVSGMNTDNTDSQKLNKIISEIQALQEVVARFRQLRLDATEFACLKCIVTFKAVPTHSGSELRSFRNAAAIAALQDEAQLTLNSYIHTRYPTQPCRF

GST-TLX ΔN (Δ1-187), sequence (Q64104 188-385, stated change not applied): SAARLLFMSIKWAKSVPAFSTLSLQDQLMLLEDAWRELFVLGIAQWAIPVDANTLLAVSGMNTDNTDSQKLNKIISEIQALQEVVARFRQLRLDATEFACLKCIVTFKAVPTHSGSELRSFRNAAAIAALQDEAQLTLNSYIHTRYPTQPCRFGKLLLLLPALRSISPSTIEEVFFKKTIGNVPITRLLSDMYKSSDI

binding result (GST-TLX ΔN (Δ1-187)): binds
binding result (GST-TLX ΔC341-385): binds
B1: ThioHis-VHL30Δ95-123 (natural protein, UniProt P40337-1 1-213, looked up)
chain: MPRRAENWDEAEVGAEEAGVEEYGPEEDGGEESGAEESGPEESGPEELGAEEEMEAGRPRPVLRSVNSREPSQVIFCNRSPRVVLPVWLNFDGETHDGLLVNQTELFVPSLNVDGQPIFANITLPVYTLKERCLQVVRSLVKPENYRRLDIVRSLYEDLEDHPNVQKDLERLTQERIAHQRMGD

From publication PMC3509445 (Biology Open, 2012)
